Data published in patent US20240279278A1, “NMU RECEPTOR 2 AGONISTS” (Boehringer Ingelheim International GmbH, priority 2023, published 2024).
Values belong to the binder of their own block, whether it stands above or below them. Starred links: 1 amine or outer side, 2 acyl side, 3 side chain; linkers in the order of their positions; H or OH if unused. Non-standard residues stand in square brackets, D forms with d. *: point of attachment. Pipz(1-CH2CO,4-CH2CH2NH) = O=C(CN1CCN(CCN[*:1])CC1)[*:2]; C18 diacid = O=C(O)CCCCCCCCCCCCCCCCC(=O)*; γGlu = O=C(O)[C@H](CCC(=O)[*:2])N[*:1]; 2Pal = N[C@@H](Cc1ccccn1)C(=O)O; 4Pal = N[C@@H](Cc1ccncc1)C(=O)O; NMeL = CN[C@@H](CC(C)C)C(=O)O; NMeA = CN[C@@H](C)C(=O)O; Nle = CCCC[C@H](N)C(=O)O; Sar = CNCC(=O)O

Molecular target: T1, human neuromedin U receptor 1 (human, UniProt Q9HB89 24-426)
T1 sequence (looked up): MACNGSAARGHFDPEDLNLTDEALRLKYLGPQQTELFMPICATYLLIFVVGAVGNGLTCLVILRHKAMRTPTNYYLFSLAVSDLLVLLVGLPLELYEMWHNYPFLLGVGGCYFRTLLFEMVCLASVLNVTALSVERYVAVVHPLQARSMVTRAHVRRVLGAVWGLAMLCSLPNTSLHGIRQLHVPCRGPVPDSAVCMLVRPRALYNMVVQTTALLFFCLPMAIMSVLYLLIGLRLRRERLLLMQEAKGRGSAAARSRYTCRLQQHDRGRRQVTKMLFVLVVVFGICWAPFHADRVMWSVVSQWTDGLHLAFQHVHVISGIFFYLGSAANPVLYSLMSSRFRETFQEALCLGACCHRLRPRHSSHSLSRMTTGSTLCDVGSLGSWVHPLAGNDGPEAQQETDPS
Test: cell-based or functional assay

B2: C18DA-gGlu2-Sar9-AEPipAc-Tyr-Phe-NMeLeu-Nle-Orn-NMeAla-Arg-Gly-NH2 (peptide)
peptide: EEXXXXXXXXXXYFLXXARG
HELM: PEPTIDE1{[O=C(O)CCCCCCCCCCCCCCCCC(=O)[*:2]].[gGlu].[gGlu].[Sar].[Sar].[Sar].[Sar].[Sar].[Sar].[Sar].[Sar].[Sar].[O=C(CN1CCN(CCN[*:1])CC1)[*:2]].Y.F.[meL].[Nle].[Orn].[meA].R.G.[am]}$$$$V2.0
SMILES: CCCC[C@H](NC(=O)[C@H](CC(C)C)N(C)C(=O)[C@H](Cc1ccccc1)NC(=O)[C@H](Cc1ccc(O)cc1)NC(=O)CN1CCN(CCNC(=O)CN(C)C(=O)CN(C)C(=O)CN(C)C(=O)CN(C)C(=O)CN(C)C(=O)CN(C)C(=O)CN(C)C(=O)CN(C)C(=O)CN(C)C(=O)CC[C@H](NC(=O)CC[C@H](NC(=O)CCCCCCCCCCCCCCCCC(=O)O)C(=O)O)C(=O)O)CC1)C(=O)N[C@@H](CCCN)C(=O)N(C)[C@@H](C)C(=O)N[C@@H](CCCNC(=N)N)C(=O)NCC(N)=O
EC50 (hNMUR1) buffer: > 1000 nM

B3: C18DA-gGlu3-Sar15-AEPipAc-Tyr-Phe-NMeLeu-Nle-2Pal-NMeAla-Arg-Gly-NH2 (peptide)
peptide: {C18 diacid}-[γGlu][γGlu][γGlu][Sar][Sar][Sar][Sar][Sar][Sar][Sar][Sar][Sar][Sar][Sar][Sar][Sar][Sar][Sar][Pipz(1-CH2CO,4-CH2CH2NH)]YF[NMeL][Nle][2Pal][NMeA]RG-NH2
SMILES: CCCC[C@H](NC(=O)[C@H](CC(C)C)N(C)C(=O)[C@H](Cc1ccccc1)NC(=O)[C@H](Cc1ccc(O)cc1)NC(=O)CN1CCN(CCNC(=O)CN(C)C(=O)CN(C)C(=O)CN(C)C(=O)CN(C)C(=O)CN(C)C(=O)CN(C)C(=O)CN(C)C(=O)CN(C)C(=O)CN(C)C(=O)CN(C)C(=O)CN(C)C(=O)CN(C)C(=O)CN(C)C(=O)CN(C)C(=O)CN(C)C(=O)CC[C@H](NC(=O)CC[C@H](NC(=O)CC[C@H](NC(=O)CCCCCCCCCCCCCCCCC(=O)O)C(=O)O)C(=O)O)C(=O)O)CC1)C(=O)N[C@@H](Cc1ccccn1)C(=O)N(C)[C@@H](C)C(=O)N[C@@H](CCCNC(=N)N)C(=O)NCC(N)=O
EC50 (hNMUR1) buffer: > 1000 nM

B4: C18DA-gGlu3-Sar15-AEPipAc-Tyr-Phe-NMeLeu-Nle-Lys-NMeAla-Arg-Gly-NH2 (peptide)
peptide: EEEXXXXXXXXXXXXXXXXYFLXKARG
HELM: PEPTIDE1{[O=C(O)CCCCCCCCCCCCCCCCC(=O)[*:2]].[gGlu].[gGlu].[gGlu].[Sar].[Sar].[Sar].[Sar].[Sar].[Sar].[Sar].[Sar].[Sar].[Sar].[Sar].[Sar].[Sar].[Sar].[Sar].[O=C(CN1CCN(CCN[*:1])CC1)[*:2]].Y.F.[meL].[Nle].K.[meA].R.G.[am]}$$$$V2.0
SMILES: CCCC[C@H](NC(=O)[C@H](CC(C)C)N(C)C(=O)[C@H](Cc1ccccc1)NC(=O)[C@H](Cc1ccc(O)cc1)NC(=O)CN1CCN(CCNC(=O)CN(C)C(=O)CN(C)C(=O)CN(C)C(=O)CN(C)C(=O)CN(C)C(=O)CN(C)C(=O)CN(C)C(=O)CN(C)C(=O)CN(C)C(=O)CN(C)C(=O)CN(C)C(=O)CN(C)C(=O)CN(C)C(=O)CN(C)C(=O)CN(C)C(=O)CC[C@H](NC(=O)CC[C@H](NC(=O)CC[C@H](NC(=O)CCCCCCCCCCCCCCCCC(=O)O)C(=O)O)C(=O)O)C(=O)O)CC1)C(=O)N[C@@H](CCCCN)C(=O)N(C)[C@@H](C)C(=O)N[C@@H](CCCNC(=N)N)C(=O)NCC(N)=O
EC50 (hNMUR1) buffer: > 1000 nM

B6: C18DA-gGlu3-Sar15-AEPipAc-Tyr-Phe-NMeLeu-Nle-4Pal-Pro-Arg-Gly-NH2 (peptide)
peptide: {C18 diacid}-[γGlu][γGlu][γGlu][Sar][Sar][Sar][Sar][Sar][Sar][Sar][Sar][Sar][Sar][Sar][Sar][Sar][Sar][Sar][Pipz(1-CH2CO,4-CH2CH2NH)]YF[NMeL][Nle][4Pal]PRG-NH2
SMILES: CCCC[C@H](NC(=O)[C@H](CC(C)C)N(C)C(=O)[C@H](Cc1ccccc1)NC(=O)[C@H](Cc1ccc(O)cc1)NC(=O)CN1CCN(CCNC(=O)CN(C)C(=O)CN(C)C(=O)CN(C)C(=O)CN(C)C(=O)CN(C)C(=O)CN(C)C(=O)CN(C)C(=O)CN(C)C(=O)CN(C)C(=O)CN(C)C(=O)CN(C)C(=O)CN(C)C(=O)CN(C)C(=O)CN(C)C(=O)CN(C)C(=O)CC[C@H](NC(=O)CC[C@H](NC(=O)CC[C@H](NC(=O)CCCCCCCCCCCCCCCCC(=O)O)C(=O)O)C(=O)O)C(=O)O)CC1)C(=O)N[C@@H](Cc1ccncc1)C(=O)N1CCC[C@H]1C(=O)N[C@@H](CCCNC(=N)N)C(=O)NCC(N)=O
EC50 (hNMUR1) buffer: > 1000 nM

B9: C18DA-gGlu3-Sar15-AEPipAc-Tyr-Phe-NMeLeu-Nle-Lys-Pro-Arg-Gly-NH2 (peptide)
peptide: EEEXXXXXXXXXXXXXXXXYFLXKPRG
HELM: PEPTIDE1{[O=C(O)CCCCCCCCCCCCCCCCC(=O)[*:2]].[gGlu].[gGlu].[gGlu].[Sar].[Sar].[Sar].[Sar].[Sar].[Sar].[Sar].[Sar].[Sar].[Sar].[Sar].[Sar].[Sar].[Sar].[Sar].[O=C(CN1CCN(CCN[*:1])CC1)[*:2]].Y.F.[meL].[Nle].K.P.R.G.[am]}$$$$V2.0
SMILES: CCCC[C@H](NC(=O)[C@H](CC(C)C)N(C)C(=O)[C@H](Cc1ccccc1)NC(=O)[C@H](Cc1ccc(O)cc1)NC(=O)CN1CCN(CCNC(=O)CN(C)C(=O)CN(C)C(=O)CN(C)C(=O)CN(C)C(=O)CN(C)C(=O)CN(C)C(=O)CN(C)C(=O)CN(C)C(=O)CN(C)C(=O)CN(C)C(=O)CN(C)C(=O)CN(C)C(=O)CN(C)C(=O)CN(C)C(=O)CN(C)C(=O)CC[C@H](NC(=O)CC[C@H](NC(=O)CC[C@H](NC(=O)CCCCCCCCCCCCCCCCC(=O)O)C(=O)O)C(=O)O)C(=O)O)CC1)C(=O)N[C@@H](CCCCN)C(=O)N1CCC[C@H]1C(=O)N[C@@H](CCCNC(=N)N)C(=O)NCC(N)=O
EC50 (hNMUR1) buffer: > 1000 nM

Next, values leading:

EC50 (hNMUR1) buffer: 190 nM
B1: C20DA-gGlu4-Sar12-AEPipAc-Tyr-Phe-NMeLeu-Nle-Arg-Pro-Arg-Gly-NH2 (peptide)
peptide: EEEEXXXXXXXXXXXXXYFLXRPRG
HELM: PEPTIDE1{[O=C(O)CCCCCCCCCCCCCCCCCCC(=O)[*:2]].[gGlu].[gGlu].[gGlu].[gGlu].[Sar].[Sar].[Sar].[Sar].[Sar].[Sar].[Sar].[Sar].[Sar].[Sar].[Sar].[Sar].[O=C(CN1CCN(CCN[*:1])CC1)[*:2]].Y.F.[meL].[Nle].R.P.R.G.[am]}$$$$V2.0
SMILES: CCCC[C@H](NC(=O)[C@H](CC(C)C)N(C)C(=O)[C@H](Cc1ccccc1)NC(=O)[C@H](Cc1ccc(O)cc1)NC(=O)CN1CCN(CCNC(=O)CN(C)C(=O)CN(C)C(=O)CN(C)C(=O)CN(C)C(=O)CN(C)C(=O)CN(C)C(=O)CN(C)C(=O)CN(C)C(=O)CN(C)C(=O)CN(C)C(=O)CN(C)C(=O)CN(C)C(=O)CC[C@H](NC(=O)CC[C@H](NC(=O)CC[C@H](NC(=O)CC[C@H](NC(=O)CCCCCCCCCCCCCCCCCCC(=O)O)C(=O)O)C(=O)O)C(=O)O)C(=O)O)CC1)C(=O)N[C@@H](CCCNC(=N)N)C(=O)N1CCC[C@H]1C(=O)N[C@@H](CCCNC(=N)N)C(=O)NCC(N)=O

EC50 (hNMUR1) buffer: 1300 nM
B5: C18DA-gGlu4-Sar12-AEPipAc-Tyr-Phe-NMeLeu-Nle-Dbu-Pro-Arg-Gly-NH2 (peptide)
peptide: EEEEXXXXXXXXXXXXXYFLXXPRG
HELM: PEPTIDE1{[O=C(O)CCCCCCCCCCCCCCCCC(=O)[*:2]].[gGlu].[gGlu].[gGlu].[gGlu].[Sar].[Sar].[Sar].[Sar].[Sar].[Sar].[Sar].[Sar].[Sar].[Sar].[Sar].[Sar].[O=C(CN1CCN(CCN[*:1])CC1)[*:2]].Y.F.[meL].[Nle].[Dab].P.R.G.[am]}$$$$V2.0
SMILES: CCCC[C@H](NC(=O)[C@H](CC(C)C)N(C)C(=O)[C@H](Cc1ccccc1)NC(=O)[C@H](Cc1ccc(O)cc1)NC(=O)CN1CCN(CCNC(=O)CN(C)C(=O)CN(C)C(=O)CN(C)C(=O)CN(C)C(=O)CN(C)C(=O)CN(C)C(=O)CN(C)C(=O)CN(C)C(=O)CN(C)C(=O)CN(C)C(=O)CN(C)C(=O)CN(C)C(=O)CC[C@H](NC(=O)CC[C@H](NC(=O)CC[C@H](NC(=O)CC[C@H](NC(=O)CCCCCCCCCCCCCCCCC(=O)O)C(=O)O)C(=O)O)C(=O)O)C(=O)O)CC1)C(=O)N[C@@H](CCN)C(=O)N1CCC[C@H]1C(=O)N[C@@H](CCCNC(=N)N)C(=O)NCC(N)=O

EC50 (hNMUR1) buffer: 870 nM
B7: C18DA-gGlu4-Sar12-AEPipAc-Tyr-Phe-NMeLeu-Nle-Orn-Pro-Arg-Gly-NH2 (peptide)
peptide: EEEEXXXXXXXXXXXXXYFLXXPRG
HELM: PEPTIDE1{[O=C(O)CCCCCCCCCCCCCCCCC(=O)[*:2]].[gGlu].[gGlu].[gGlu].[gGlu].[Sar].[Sar].[Sar].[Sar].[Sar].[Sar].[Sar].[Sar].[Sar].[Sar].[Sar].[Sar].[O=C(CN1CCN(CCN[*:1])CC1)[*:2]].Y.F.[meL].[Nle].[Orn].P.R.G.[am]}$$$$V2.0
SMILES: CCCC[C@H](NC(=O)[C@H](CC(C)C)N(C)C(=O)[C@H](Cc1ccccc1)NC(=O)[C@H](Cc1ccc(O)cc1)NC(=O)CN1CCN(CCNC(=O)CN(C)C(=O)CN(C)C(=O)CN(C)C(=O)CN(C)C(=O)CN(C)C(=O)CN(C)C(=O)CN(C)C(=O)CN(C)C(=O)CN(C)C(=O)CN(C)C(=O)CN(C)C(=O)CN(C)C(=O)CC[C@H](NC(=O)CC[C@H](NC(=O)CC[C@H](NC(=O)CC[C@H](NC(=O)CCCCCCCCCCCCCCCCC(=O)O)C(=O)O)C(=O)O)C(=O)O)C(=O)O)CC1)C(=O)N[C@@H](CCCN)C(=O)N1CCC[C@H]1C(=O)N[C@@H](CCCNC(=N)N)C(=O)NCC(N)=O

EC50 (hNMUR1) buffer: 950 nM
B8: C20DA-gGlu4-Sar12-AEPipAc-Tyr-Phe-NMeLeu-Nle-Orn-Pro-Arg-Gly-NH2 (peptide)
peptide: EEEEXXXXXXXXXXXXXYFLXXPRG
HELM: PEPTIDE1{[O=C(O)CCCCCCCCCCCCCCCCCCC(=O)[*:2]].[gGlu].[gGlu].[gGlu].[gGlu].[Sar].[Sar].[Sar].[Sar].[Sar].[Sar].[Sar].[Sar].[Sar].[Sar].[Sar].[Sar].[O=C(CN1CCN(CCN[*:1])CC1)[*:2]].Y.F.[meL].[Nle].[Orn].P.R.G.[am]}$$$$V2.0
SMILES: CCCC[C@H](NC(=O)[C@H](CC(C)C)N(C)C(=O)[C@H](Cc1ccccc1)NC(=O)[C@H](Cc1ccc(O)cc1)NC(=O)CN1CCN(CCNC(=O)CN(C)C(=O)CN(C)C(=O)CN(C)C(=O)CN(C)C(=O)CN(C)C(=O)CN(C)C(=O)CN(C)C(=O)CN(C)C(=O)CN(C)C(=O)CN(C)C(=O)CN(C)C(=O)CN(C)C(=O)CC[C@H](NC(=O)CC[C@H](NC(=O)CC[C@H](NC(=O)CC[C@H](NC(=O)CCCCCCCCCCCCCCCCCCC(=O)O)C(=O)O)C(=O)O)C(=O)O)C(=O)O)CC1)C(=O)N[C@@H](CCCN)C(=O)N1CCC[C@H]1C(=O)N[C@@H](CCCNC(=N)N)C(=O)NCC(N)=O
